One block for each substance: values may come before it.
What was measured:
[1] = target: D3H44 light chain Q124E_L135W_Q160E_T180E; assay: LCCA, SPR tag readout, L1:L2 DNA 1:9 normalized to 1:1; competitor m25
[2] = target: D3H44 light chain Q124E_L135W_Q160E_T180E; assay: LCCA, SPR tag readout, L1:L2 DNA 1:9 normalized to 1:1; competitor m23
[3] = target: D3H44 light chain F116A_Q124R_L135V_T178R; assay: LCCA, SPR tag readout, L1:L2 DNA 1:9 normalized to 1:1; competitor m24
[4] = target: D3H44 light chain F116A_Q124R_L135V; assay: as above
[5] = target: D3H44 light chain F116A_Q124R_L135V_T178R; assay: LCCA, SPR tag readout, L1:L2 DNA 1:3 normalized to 1:1; competitor m24
[6] = target: D3H44 light chain F116A_Q124R_L135V; assay: as above
[7] = target: D3H44 light chain Q124E_L135W_Q160E_T180E; assay: LCCA, SPR tag readout, L1:L2 DNA 1:3 normalized to 1:1; competitor m25
[8] = target: D3H44 light chain Q124E_L135W_Q160E_T180E; assay: LCCA, SPR tag readout, L1:L2 DNA 1:3 normalized to 1:1; competitor m23
[9] = target: D3H44 light chain Q124E_Q160E_T180E (Kabat) with N-terminal HA or FLAG tag; assay: LCCA, SPR read-out of light-chain tags; light-chain DNA 1:3 normalized to 1:1; competing light chain m18
[10] = target: D3H44 light chain T178R (Kabat) with N-terminal HA or FLAG tag; assay: LCCA, SPR read-out of light-chain tags; light-chain DNA 1:3 normalized to 1:1; competing light chain m17
[11] = target: D3H44 light chain Q124E_Q160E_T180E (Kabat) with N-terminal HA or FLAG tag; assay: LCCA, SPR read-out of light-chain tags; light-chain DNA 1:3 normalized to 1:1; competing light chain m20
[12] = target: D3H44 light chain Q124R_Q160K_T178R (Kabat) with N-terminal HA or FLAG tag; assay: LCCA, SPR read-out of light-chain tags; light-chain DNA 1:3 normalized to 1:1; competing light chain m17
[13] = target: tissue factor (TF) antigen (UniProt P13726); assay: SPR (ProteOn XPR36), Fab captured on anti-penta-His surface, TF as analyte; reference wild-type D3H44 Fab
[14] = target: tissue factor (TF) antigen (UniProt P13726); assay: SPR (ProteOn XPR36), Fab captured on anti-penta-His surface, TF as analyte, 1:1 fit
[15] = target: tissue factor (TF) antigen (UniProt P13726); assay: SPR, His-captured Fab, TF as analyte, 1:1 fit
[16] = target: tissue factor (TF) antigen (UniProt P13726); assay: SPR, His-captured Fab, TF as analyte; against wild-type D3H44 Fab
[17] = target: tissue factor (TF) antigen (UniProt P13726); assay: SPR (ProteOn XPR36), His-tagged Fab captured on anti-penta His, TF as analyte; against wild-type D3H44 Fab; batch C (+)
[18] = target: tissue factor (TF) antigen (UniProt P13726); assay: SPR (ProteOn XPR36), His-tagged Fab captured on anti-penta His, TF as analyte, 1:1 fit; batch C (+)
[19] = target: tissue factor (TF) antigen (UniProt P13726); assay: SPR, ProteOn XPR36; His-tagged Fab captured on anti-penta-His, TF injected; 1:1 fit
[20] = target: tissue factor (TF) antigen (UniProt P13726); assay: SPR as for KD; reference: wild-type D3H44 Fab
[21] = target: tissue factor (TF) antigen (UniProt P13726); assay: SPR, Fab captured on anti-penta-His surface, TF as analyte, 1:1 fit; against wild-type D3H44 Fab
[22] = target: tissue factor (TF) antigen (UniProt P13726); assay: SPR, Fab captured on anti-penta-His surface, TF as analyte, 1:1 fit
[23] = target: tissue factor (TF) antigen (UniProt P13726); assay: SPR (ProteOn XPR36): His-tagged Fab captured on anti-penta-His surface, TF as analyte, 1:1 fit; batch C (+)

Substance: D3H44 Fab heavy chain A139G_Q179K_V190A
- H1L1:H1L2 normalized median ratio [1]: 91%
- H1L1:H1L2 normalized median scalar value ln(r1/f1) [1]: 2.31
- H1L1:H1L2 normalized median ratio [2]: 86%
- H1L1:H1L2 normalized median scalar value ln(r1/f1) [2]: 1.85
- H1L1:H1L2 normalized median ratio [3]: 14%
- H1L1:H1L2 normalized median ratio [4]: 9%
- H1L1:H1L2 normalized median ratio [5]: 13%
- H1L1:H1L2 normalized median ratio [6]: 15%
- H1L1:H1L2 normalized median ratio [7]: 85%
- H1L1:H1L2 normalized median scalar value ln(r1/f1) [7]: 1.71
- H1L1:H1L2 normalized median ratio [8]: 87%
- H1L1:H1L2 normalized median scalar value ln(r1/f1) [8]: 1.88

Substance: D3H44 Fab heavy chain L143D_K145T_Q179E (Kabat) with C-terminal ABD2-His6 tag
- H1L1:H1L2 normalized median ratio [9]: 11%
- H1L1:H1L2 normalized median ratio [10]: 89%
- H1L1:H1L2 normalized median scalar value ln(r1/f1) [10]: 2.1

Substance: D3H44 Fab heterodimer H1 L45P_L143E_K145T_H172R / L1 P44F_Q124R_Q160K_T178R
- Change in median values of KD of h1l1 Fab heterodimer compared to wild type (-(log(KD design)-log(KD wt))) [13]: -0.27
- Kd [14]: 0.29 nM

Substance: D3H44 Fab heterodimer H1 L124A / L1 V133W
- Change in median values of KD of h1l1 Fab heterodimer compared to wild type (-(log(KD design)-log(KD wt))) [13]: 0.07
- Kd [14]: 0.13 nM

Substance: D3H44 Fab heterodimer H1 L124A_S186K / L1 Q124E_V133W_T180E
- Change in median values of KD of h1l1 Fab heterodimer compared to wild type (-(log(KD design)-log(KD wt))) [13]: 0.02
- Kd [14]: 0.15 nM

Substance: D3H44 Fab heterodimer H1 L124R_A125R_H172T / L1 V133G_N137K_S174R_S176D
- Change in median values of KD of h1l1 Fab heterodimer compared to wild type (-(log(KD design)-log(KD wt))) [13]: -0.16
- Kd [14]: 0.23 nM

Substance: D3H44 Fab heterodimer H1L1 of LCCA Set # 9769, 9767, 9763, 9759, 9761, 9760 and 9773 (H1 Q179K; L1 Q124E_Q160E_T180E)
- Kd [15]: 0.32 nM
- Change in median values of KD compared to wild type (-(log(KD design)-log(KD wt))) [16]: -0.31 log

Substance: D3H44 Fab heterodimer, H1 Q39E_L143E_K145T / L1 Q38R_Q124R_Q160K_T178R (H1L1 Fab of LCCA Set # 9817)
- Change in median values of KD of h1|1 Fab heterodimer compared to wild type (-(log(KD design)-log(KD wt))) [17]: -0.05
- Kd [18]: 0.18 nM

Substance: D3H44 Fab heterodimer, H1 Q39R_D146G_Q179K / L1 Q38E_Q124E_Q160E_T180E (H1L1 Fab of LCCA Set # 9822)
- Change in median values of KD of h1|1 Fab heterodimer compared to wild type (-(log(KD design)-log(KD wt))) [17]: 0.17
- Kd [18]: 0.11 nM

Substance: D3H44 Fab heterodimer, H1 S186R / L1 Q38E_Q124E_Q160E_T180E (H1L1 Fab of LCCA Set # 9905)
- Change in median values of KD of h1|1 Fab heterodimer compared to wild type (-(log(KD design)-log(KD wt))) [17]: 0.2
- Kd [18]: 0.1 nM

Substance: D3H44 Fab heterodimer, H1L1 of LCCA Set # 9568 (H1 L124W_L143F; L1 V133A_S176T_T178L)
- Kd [19]: 0.3 nM
- change in median KD compared to wild type, -(log(KD design)-log(KD wt)) [20]: -0.28

Substance: D3H44 Fab heterodimer, H1L1 of LCCA Sets # 9692, 9696, 9688, 9702 and 9700 (H1 L143E_K145T_Q179E_S188L; L1 Q124R_T178R)
- Kd [19]: 0.34 nM
- change in median KD compared to wild type, -(log(KD design)-log(KD wt)) [20]: -0.34

Substance: D3H44 H1L1 Fab heterodimer of LCCA Set # 9054 (H1 A139G_Q179K_V190A; L1 Q124E_L135W_Q160E_T180E)
- change in median KD compared to wild type, -(log(KD design)-log(KD wt)) [21]: 0.05
- Kd [22]: 0.14 nM

Substance: D3H44 H1L1 Fab heterodimer of LCCA Set # 9098 (H1 L124A_Q179K; L1 Q124E_V133W_S176T_T178E_T180E)
- change in median KD compared to wild type, -(log(KD design)-log(KD wt)) [21]: -0.03
- Kd [22]: 0.17 nM

Substance: D3H44 H1L1 Fab heterodimer of LCCA Set # 9111 (H1 L124E_A125S_H172R_K228D; L1 S121K_V133G_S176R)
- change in median KD compared to wild type, -(log(KD design)-log(KD wt)) [21]: 0.09
- Kd [22]: 0.13 nM

Substance: D3H44 H1L1 Fab heterodimer of LCCA Set # 9740 (H1 L143R; L1 Q124E_V133E)
- change in median KD compared to wild type, -(log(KD design)-log(KD wt)) [21]: -0.09
- Kd [22]: 0.2 nM

Substance: D3H44 H1L1 Fab heterodimer of LCCA Set # 10549 (H1 L45P_K145T_Q179E; L1 P44F_S131K)
- change in median KD compared to wild type, -(log(KD design)-log(KD wt)) [21]: -0.35
- Kd [22]: 0.35 nM

Substance: D3H44 H1L1 Fab heterodimer of LCCA set 9741 (H1 L143R; L1 Q124E_V133E_Q160F)
- Change in median values of KD of h1|1 Fab heterodimer compared to wild type (-(log(KD design)-log(KD wt))) [23]: 0.34 log units
- Kd [23]: 0.07 nM

The next lines start with the values.

- H2L2:H2L1 normalized median ratio [11]: 87%
- H2L2:H2L1 normalized median ratio [9]: 78%
- H2L2:H2L1 normalized median ratio [10]: 22%
- H2L2:H2L1 normalized median ratio [12]: 13%
Substance: D3H44 Fab heavy chain Q179K (Kabat) with C-terminal ABD2-His6 tag

- Change in median values of KD of h1l1 Fab heterodimer compared to wild type (-(log(KD design)-log(KD wt))) [13]: -0.16
- Kd [14]: 0.23 nM
Substance: D3H44 Fab heterodimer H1 L124R_H172T / L1 V133G_N137K_S174R_S176D

- Change in median values of KD of h1l1 Fab heterodimer compared to wild type (-(log(KD design)-log(KD wt))) [13]: -0.13
- Kd [14]: 0.21 nM
Substance: D3H44 Fab heterodimer H1 L124W_L143E_K145T_Q179E / L1 Q124R_V133A_S176T_T178R

- Change in median values of KD of h1|1 Fab heterodimer compared to wild type (-(log(KD design)-log(KD wt))) [17]: 0.12
- Kd [18]: 0.12 nM
Substance: D3H44 Fab heterodimer, H1 L143E_K145T_P175C_Q179E / L1 Q124R_S162C_T178R (H1L1 Fab of LCCA Set # 9613)

- Change in median values of KD of h1|1 Fab heterodimer compared to wild type (-(log(KD design)-log(KD wt))) [17]: 0.07
- Kd [18]: 0.14 nM
Substance: D3H44 Fab heterodimer, H1 Q39R_S186R / L1 Q38E_Q124E_Q160E_T180E (H1L1 Fab of LCCA Set # 9828)

- Kd [19]: 0.16 nM
- change in median KD compared to wild type, -(log(KD design)-log(KD wt)) [20]: -0.02
Substance: D3H44 Fab heterodimer, H1L1 of LCCA Sets # 9057, 9056 and 9055 (H1 A139G_V190A; L1 L135W_S176L)

- Kd [19]: 0.25 nM
- change in median KD compared to wild type, -(log(KD design)-log(KD wt)) [20]: -0.21
Substance: D3H44 Fab heterodimer, H1L1 of LCCA Sets # 9567 and 9566 (H1 L124W_L143F; L1 V133A)

- change in median KD compared to wild type, -(log(KD design)-log(KD wt)) [21]: -0.24
- Kd [22]: 0.27 nM
Substance: D3H44 H1L1 Fab heterodimer of LCCA Set # 9559 (H1 L124W_L143E_K145T_Q179E; L1 Q124K_V133A_S176T_T178R)

- change in median KD compared to wild type, -(log(KD design)-log(KD wt)) [21]: -0.21
- Kd [22]: 0.25 nM
Substance: D3H44 H1L1 Fab heterodimer of LCCA Set # 9742 (H1 L143R; L1 Q124E_V133E_Q160M)

- Change in median values of KD of h1|1 Fab heterodimer compared to wild type (-(log(KD design)-log(KD wt))) [23]: 0.04 log units
- Kd [23]: 0.14 nM
Substance: D3H44 H1L1 Fab heterodimer of LCCA set 9632 (H1 L143E_K145T_Q179D; L1 Q124R_T178R)

- Change in median values of KD of h1|1 Fab heterodimer compared to wild type (-(log(KD design)-log(KD wt))) [23]: 0.27 log units
- Kd [23]: 0.09 nM
Substance: D3H44 H1L1 Fab heterodimer of LCCA sets 9911, 9909 and 9907 (H1 S188L; L1 WT)

Source: patent US11306156
